Test results from the RNAGym collection of RNA variant scans (doi:10.1073/pnas.2313332121).
Fewer inactive variants are shown than the library holds.

B1: TPR 5TU (parent)
chain: GGAUCUUCUCGAUCUAACAAAAAAGACAAAUCUGCCACAAAGCUUGAGAGCAUCUUCGGAUGCAGAGGCGGCAGCCUUCGGUGGCGCGAUAGCGCCAACGUUCUCAACUAUGACACGCAAAACGCGUGCUCCGUUGAAUGGAGUUUAUCAUG

Variants of: B1
Assay: polymerase ribozyme fitness, log enrichment relative to wild type (log ratio); higher = more active; in vitro selection for triplet polymerase activity
Method in brief: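 Streptavidin-bead capture of gel-excised extended constructs, followed by RT-PCR, closed a single triplicate in vitro selection round. That round began by annealing PCR-built, transcribed mutant libraries of each subunit of a heterodimeric triplet polymerase ribozyme with a biotinylated primer, the partner subunit and triplets, then incubating them frozen at −7 °C. After Illumina sequencing of inputs and outputs, genotypes needed ≥10 input reads and ≥1 read per output. Fitness is the base-2 logarithm of genotype enrichment over wild-type enrichment, using inverse-variance-weighted replicate averages.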

Variant	polymerase ribozyme fitness (log ratio)
U53A C57G C95G	-4.01
A52U U61G G80C C87G G94U A121U	≤ -4.2
U53A C149U	-1.57
A52C A73G A138G	≤ -4.2
A52C C57G G94A G100U U148A	≤ -4.2
U53A U61A C85U A97U C108U	≤ -4.2
A52C C57U G86U C99U C118U C125G G143A U151A	≤ -4.2
A52U C76U G86C G126C G152U	≤ -4.2
A52G A60G C85A C95G A97G U102A C125A	≤ -4.2
A52G G70A C96A U102G C129G G143A U146A	≤ -4.2
U53A A64G	-3.41
A52C C118U G143A U144C	-3.94
U53A G59A C85G C149U	-3.31
U53G C87A A120U A142U U146A	≤ -4.2
U53A C93G A98G	≤ -4.2
A52C C96A C118G C125A	-2.23
A52G U77G A91C	≤ -4.2
C51U C79U	-3.01
U53A C72G C85U U127A	≤ -4.2
C54A C105G U130C	-2.7
U53G G59C U61A G88C G94U	≤ -4.2

Variant	polymerase ribozyme fitness (log ratio)
U53C G58C C93U C96G G140A	-4.1
C51U C116G G140C	-4.07
U53A G152U	-3.33
A52G A106G G143A	-0.542
A52C C85A C93U C96G A121C U146C	≤ -4.2
A52C U61A G65A C95A G141U	-2.36
C51U G68U C87U U145C	≤ -4.2
U53C C57A C95U A98G U104A	-0.528
A52G U53G	-3.21
A52C C87U A89C C99U	-4.14
C54A C75U C93U	-2.29
A52G C96G G112C	≤ -4.2
A52C C95U C99U	-3.18
C51U G140U	-2.55
U53G G58A	-1.53
U53G A73C G83U G117U	≤ -4.2
A52U U101G	-2.22
U53G G68A	≤ -4.2
A52G G62A C76U U145A	-2.04
U53G C54A	-2.07
U53A U56G A115U A120G	-2.77

Variant	polymerase ribozyme fitness (log ratio)
A52C G152U	-3.45
C51U C95A U104C C116G	-0.304
A52C C93G A122G	-3.18
A52G C79G	-3.71
U53A G80C	≤ -4.2
A52G A142U	-0.597
U53A C85U G133C	-2.22
A52U G92C	-2.01
U53A A73G G86A G92U C95U G143U	≤ -4.2
C54A C57G C87U A150G	-3.99
U53C C72A U139C A150G	≤ -4.2
U53A G58A C93U C116U	-0.438
C54A C96G A97C G143C	≤ -4.2
C51U C93U U109G C116U	-3.68
A52U U109G	-3.48
A52C U56A C96A A110G	-3.99
A52C A73G G84U A115G C123G G124C C129A	≤ -4.2
U53G C76A U134A	≤ -4.2
U53A G86A A91C G128C	≤ -4.2
C51U G92A	-3.5
A52G A97U	-0.8

Variant	polymerase ribozyme fitness (log ratio)
A52C A60C	-2.71
C51U G58A G92C G136A U148C	-3.3
U53A G67C C76G G84A C114U	-4.1
U53G U61A	-3.21
U53C G143U	-2.74
U53A U55A	-2.2
A52C C132U	-2.24
C51U C96G C132A	-3.26
A52C U55A A91G U111A U139G	≤ -4.2
U53A A73G G74C C85A U90C	≤ -4.2
U53A G59C A60G G84A	-1.76
C54A C85U C105U A142C	-2.12
A52G C108G	≤ -4.2
C54A A121U G141C	-1.65
A52C U55A C72U A98U	-3.14
U53G C93U	-1.92
A52G C87U	-1.3
A52U	-1.49
A52C	-0.883
A52G	-0.491
U53A G71C G88A	≤ -4.2
